Measured values as given in article PMC12311110.

Tests used:
[1] = target: endogenous VPS26 (UniProt O75436); assay: GFP-based co-IP, western blot band quantification; conditions: HEK293T cells, transient transfection; normalised to GFP band intensity; n = 3; parent: est. 100; read off a plot
[2] = target: hRetromer (recombinant Retromer trimer) (human) (UniProt Q96QK1); assay: ITC; Microcal PEAQ-ITC, 25 °C; 1 mM peptide or 530 µM TBC1D13 titrated into 14 µM Retromer; single-site model; mean of triplicate titrations

Sequence of recombinant full-length human TBC1D13 (Q9NVG8 whole entry): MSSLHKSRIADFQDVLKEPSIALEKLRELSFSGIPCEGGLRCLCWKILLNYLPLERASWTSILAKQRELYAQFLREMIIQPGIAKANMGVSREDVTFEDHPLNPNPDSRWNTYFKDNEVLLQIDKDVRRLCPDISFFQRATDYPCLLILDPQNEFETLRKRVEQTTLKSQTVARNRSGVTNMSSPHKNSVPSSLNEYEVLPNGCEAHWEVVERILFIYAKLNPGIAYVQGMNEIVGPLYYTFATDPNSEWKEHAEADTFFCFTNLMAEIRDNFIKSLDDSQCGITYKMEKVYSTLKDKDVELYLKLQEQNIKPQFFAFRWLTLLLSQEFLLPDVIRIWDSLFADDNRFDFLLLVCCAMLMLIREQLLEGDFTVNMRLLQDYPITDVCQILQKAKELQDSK

| Substance | percent of parent (relative intensity (WT = 100)) [1] | Kd [2] | dH [2] |
| --- | --- | --- | --- |
| human DENND4C peptide 1189-1206 |  | 15.4 µM | -10.1 kcal/mol |
| VPS35-GFP WT (from UniProt Q96QK1) I218D | 120 |  |  |
| recombinant full-length human TBC1D13 (from UniProt Q9NVG8 1-400) (natural protein) |  | 6.3 µM | -8.1 kcal/mol |

More lines, now with the values ahead:

| percent of parent (relative intensity (WT = 100)) [1] | Kd [2] | dH [2] | Substance |
| --- | --- | --- | --- |
| 110 |  |  | GFP-VPS29 wild-type (from UniProt Q9UBQ0) L152E |
| 170 |  |  | GFP-VPS29 wild-type (from UniProt Q9UBQ0) V174D |
